Measured values as given in article PMC9482650, “Quantitative fragmentomics allow affinity mapping of interactomes” (Nature Communications, 2022).

target: Inadl_10, Q8NI35; assay: holdup assay; parameters: key: below the threshold = too weak to quantify, mostly under pKd 3.1 to 4; settings: plain residues with an end cap or a label only (N-terminal biotin on a linker: ado-ado)
Sequence (Q8NI35 1673-1763): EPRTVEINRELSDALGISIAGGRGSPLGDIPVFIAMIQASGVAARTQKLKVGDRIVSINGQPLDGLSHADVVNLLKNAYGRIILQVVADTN

Binder	pKd
QNRIITKTDV [SMCHD1, A6NHR9]	below the threshold
GDGLDDEIAV [NOS1AP, O75052]	below the threshold

target: T1, CARD11, Q9BXL7; assay: holdup assay; parameters: key: below the threshold = too weak to quantify, mostly under pKd 3.1 to 4; settings: plain residues with an end cap or a label only (N-terminal biotin on a linker: ado-ado)
T1 sequence (Q9BXL7 662-765, limits assumed, looked up): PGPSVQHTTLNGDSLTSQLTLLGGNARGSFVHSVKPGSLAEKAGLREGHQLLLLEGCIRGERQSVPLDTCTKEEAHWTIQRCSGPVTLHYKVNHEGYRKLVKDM

Binder	pKd
QNRIITKTDV [SMCHD1, A6NHR9]	below the threshold
GDGLDDEIAV [NOS1AP, O75052]	below the threshold

target: T2, MPP7, Q5T2T1; assay: holdup assay; parameters: key: below the threshold = too weak to quantify, mostly under pKd 3.1 to 4; settings: plain residues with an end cap or a label only (N-terminal biotin on a linker: ado-ado)
T2 sequence (Q5T2T1 134-230, limits assumed, looked up): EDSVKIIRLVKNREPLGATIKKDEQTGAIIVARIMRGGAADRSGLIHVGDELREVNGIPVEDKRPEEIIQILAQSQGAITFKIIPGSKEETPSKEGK

Binder	pKd
QNRIITKTDV [SMCHD1, A6NHR9]	below the threshold
GDGLDDEIAV [NOS1AP, O75052]	below the threshold

target: FRMPD4, Q14CM0; assay: holdup assay; parameters: key: below the threshold = too weak to quantify, mostly under pKd 3.1 to 4; settings: plain residues with an end cap or a label only (N-terminal biotin on a linker: ado-ado)
Sequence (Q14CM0 67-160): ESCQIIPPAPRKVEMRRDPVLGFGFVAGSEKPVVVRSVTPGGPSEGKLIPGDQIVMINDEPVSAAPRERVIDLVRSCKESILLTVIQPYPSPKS

Binder	pKd
QNRIITKTDV [SMCHD1, A6NHR9]	below the threshold
GDGLDDEIAV [NOS1AP, O75052]	4.43

target: Inadl_6, Q8NI35; assay: holdup assay; parameters: key: below the threshold = too weak to quantify, mostly under pKd 3.1 to 4; settings: plain residues with an end cap or a label only (N-terminal biotin on a linker: ado-ado)
Sequence (Q8NI35 1058-1167): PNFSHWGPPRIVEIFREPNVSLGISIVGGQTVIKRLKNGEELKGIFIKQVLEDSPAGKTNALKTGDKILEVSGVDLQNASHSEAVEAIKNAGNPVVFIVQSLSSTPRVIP

Binder	pKd
QNRIITKTDV [SMCHD1, A6NHR9]	below the threshold
GDGLDDEIAV [NOS1AP, O75052]	below the threshold

target: MAGI2_4, Q86UL8; assay: holdup assay; parameters: key: below the threshold = too weak to quantify, mostly under pKd 3.1 to 4; settings: plain residues with an end cap or a label only (N-terminal biotin on a linker: ado-ado)
Sequence (Q86UL8 772-865): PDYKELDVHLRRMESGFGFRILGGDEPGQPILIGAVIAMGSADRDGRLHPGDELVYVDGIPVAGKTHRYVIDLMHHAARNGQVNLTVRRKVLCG

Binder	pKd
QNRIITKTDV [SMCHD1, A6NHR9]	3.69
GDGLDDEIAV [NOS1AP, O75052]	below the threshold

target: T3, NHERF3_4, Q5T2W1; assay: holdup assay; parameters: key: below the threshold = too weak to quantify, mostly under pKd 3.1 to 4; settings: plain residues with an end cap or a label only (N-terminal biotin on a linker: ado-ado)
T3 sequence (Q5T2W1 373-468, limits assumed, looked up): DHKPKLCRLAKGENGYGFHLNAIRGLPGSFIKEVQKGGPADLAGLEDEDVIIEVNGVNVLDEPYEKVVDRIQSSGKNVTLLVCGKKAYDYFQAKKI

Binder	pKd
QNRIITKTDV [SMCHD1, A6NHR9]	below the threshold
GDGLDDEIAV [NOS1AP, O75052]	below the threshold

target: PTPN3, P26045; assay: holdup assay; parameters: key: below the threshold = too weak to quantify, mostly under pKd 3.1 to 4; settings: plain residues with an end cap or a label only (N-terminal biotin on a linker: ado-ado)
Sequence (P26045 505-587): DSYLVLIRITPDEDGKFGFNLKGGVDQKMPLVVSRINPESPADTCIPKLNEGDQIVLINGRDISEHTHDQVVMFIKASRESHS

Binder	pKd
QNRIITKTDV [SMCHD1, A6NHR9]	below the threshold
GDGLDDEIAV [NOS1AP, O75052]	3.79

target: Inadl_9, Q8NI35; assay: holdup assay; parameters: key: below the threshold = too weak to quantify, mostly under pKd 3.1 to 4; settings: plain residues with an end cap or a label only (N-terminal biotin on a linker: ado-ado)
Sequence (Q8NI35 1530-1615): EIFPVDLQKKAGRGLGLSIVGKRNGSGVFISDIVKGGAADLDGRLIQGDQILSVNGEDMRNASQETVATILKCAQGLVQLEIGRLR

Binder	pKd
QNRIITKTDV [SMCHD1, A6NHR9]	3.55
GDGLDDEIAV [NOS1AP, O75052]	3.69

target: FRMPD2_3, Q68DX3; assay: holdup assay; parameters: key: below the threshold = too weak to quantify, mostly under pKd 3.1 to 4; settings: plain residues with an end cap or a label only (N-terminal biotin on a linker: ado-ado)
Sequence (Q68DX3 1073-1166): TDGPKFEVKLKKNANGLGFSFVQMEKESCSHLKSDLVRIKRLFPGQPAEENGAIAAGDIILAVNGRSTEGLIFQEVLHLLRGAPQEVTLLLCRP

Binder	pKd
QNRIITKTDV [SMCHD1, A6NHR9]	below the threshold
GDGLDDEIAV [NOS1AP, O75052]	3.82

target: T4, RADIL, Q96JH8; assay: holdup assay; parameters: key: below the threshold = too weak to quantify, mostly under pKd 3.1 to 4; settings: plain residues with an end cap or a label only (N-terminal biotin on a linker: ado-ado)
T4 sequence (Q96JH8 971-1071, limits assumed, looked up): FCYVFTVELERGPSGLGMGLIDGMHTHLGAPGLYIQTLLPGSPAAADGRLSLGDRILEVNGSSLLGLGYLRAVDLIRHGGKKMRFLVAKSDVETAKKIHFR

Binder	pKd
QNRIITKTDV [SMCHD1, A6NHR9]	3.64
GDGLDDEIAV [NOS1AP, O75052]	below the threshold

target: MAGI2_2, Q86UL8; assay: holdup assay; parameters: key: below the threshold = too weak to quantify, mostly under pKd 3.1 to 4; settings: plain residues with an end cap or a label only (N-terminal biotin on a linker: ado-ado)
Sequence (Q86UL8 410-522): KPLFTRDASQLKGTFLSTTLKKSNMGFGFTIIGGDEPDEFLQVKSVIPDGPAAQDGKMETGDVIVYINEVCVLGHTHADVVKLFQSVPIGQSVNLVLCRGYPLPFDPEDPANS

Binder	pKd
QNRIITKTDV [SMCHD1, A6NHR9]	4.08
GDGLDDEIAV [NOS1AP, O75052]	below the threshold

target: T5, ARHGAP21, Q5T5U3; assay: holdup assay; parameters: key: below the threshold = too weak to quantify, mostly under pKd 3.1 to 4; settings: plain residues with an end cap or a label only (N-terminal biotin on a linker: ado-ado)
T5 sequence (Q5T5U3 45-169, limits assumed, looked up): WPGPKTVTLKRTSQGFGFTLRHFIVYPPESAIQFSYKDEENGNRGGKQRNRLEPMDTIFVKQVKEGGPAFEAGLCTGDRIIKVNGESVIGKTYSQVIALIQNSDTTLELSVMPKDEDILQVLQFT

Binder	pKd
QNRIITKTDV [SMCHD1, A6NHR9]	4.04
GDGLDDEIAV [NOS1AP, O75052]	4.51

target: MAGI1_1, Q96QZ7; assay: holdup assay; parameters: key: below the threshold = too weak to quantify, mostly under pKd 3.1 to 4; settings: plain residues with an end cap or a label only (N-terminal biotin on a linker: ado-ado)
Sequence (Q96QZ7 1-106): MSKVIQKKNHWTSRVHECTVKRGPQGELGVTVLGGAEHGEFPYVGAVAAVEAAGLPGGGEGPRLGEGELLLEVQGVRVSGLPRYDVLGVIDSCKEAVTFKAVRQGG

Binder	pKd
QNRIITKTDV [SMCHD1, A6NHR9]	below the threshold
GDGLDDEIAV [NOS1AP, O75052]	below the threshold

target: SCRIB_3, Q14160; assay: holdup assay; parameters: key: below the threshold = too weak to quantify, mostly under pKd 3.1 to 4; settings: plain residues with an end cap or a label only (N-terminal biotin on a linker: ado-ado)
Sequence (Q14160 999-1103): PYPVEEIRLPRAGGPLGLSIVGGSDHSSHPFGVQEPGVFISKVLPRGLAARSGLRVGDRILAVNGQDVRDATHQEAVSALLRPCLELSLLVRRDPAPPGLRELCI

Binder	pKd
QNRIITKTDV [SMCHD1, A6NHR9]	3.81
GDGLDDEIAV [NOS1AP, O75052]	below the threshold

target: MAGI3_2, Q5TCQ9; assay: holdup assay; parameters: key: below the threshold = too weak to quantify, mostly under pKd 3.1 to 4; settings: plain residues with an end cap or a label only (N-terminal biotin on a linker: ado-ado)
Sequence (Q5TCQ9 398-503): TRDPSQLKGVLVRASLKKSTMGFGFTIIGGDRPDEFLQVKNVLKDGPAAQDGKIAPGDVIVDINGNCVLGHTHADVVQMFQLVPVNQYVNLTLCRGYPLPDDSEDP

Binder	pKd
QNRIITKTDV [SMCHD1, A6NHR9]	4.15
GDGLDDEIAV [NOS1AP, O75052]	3.98

target: ARHGEF12, Q9NZN5-2; assay: holdup assay; parameters: key: below the threshold = too weak to quantify, mostly under pKd 3.1 to 4; settings: plain residues with an end cap or a label only (N-terminal biotin on a linker: ado-ado)
Sequence (Q9NZN5 other isoform, or with tags, fused parts or gaps): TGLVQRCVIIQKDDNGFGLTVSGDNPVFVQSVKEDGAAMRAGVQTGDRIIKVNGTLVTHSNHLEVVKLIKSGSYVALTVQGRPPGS

Binder	pKd
QNRIITKTDV [SMCHD1, A6NHR9]	4.19
GDGLDDEIAV [NOS1AP, O75052]	below the threshold

target: NOS1, P29475; assay: holdup assay; parameters: key: below the threshold = too weak to quantify, mostly under pKd 3.1 to 4; settings: plain residues with an end cap or a label only (N-terminal biotin on a linker: ado-ado)
Sequence (P29475 9-101): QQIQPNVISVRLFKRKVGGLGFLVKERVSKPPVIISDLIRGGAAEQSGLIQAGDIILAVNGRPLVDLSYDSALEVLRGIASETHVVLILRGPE

Binder	pKd
QNRIITKTDV [SMCHD1, A6NHR9]	below the threshold
GDGLDDEIAV [NOS1AP, O75052]	3.8

target: T6, APBA3_1, O96018; assay: holdup assay; parameters: key: below the threshold = too weak to quantify, mostly under pKd 3.1 to 4; settings: plain residues with an end cap or a label only (N-terminal biotin on a linker: ado-ado)
T6 sequence (O96018 389-490, limits assumed, looked up): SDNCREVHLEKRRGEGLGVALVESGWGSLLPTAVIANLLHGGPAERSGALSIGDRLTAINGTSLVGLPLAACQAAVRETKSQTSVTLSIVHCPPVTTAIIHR

Binder	pKd
QNRIITKTDV [SMCHD1, A6NHR9]	below the threshold
GDGLDDEIAV [NOS1AP, O75052]	below the threshold

target: MAGI2_3, Q86UL8; assay: holdup assay; parameters: key: below the threshold = too weak to quantify, mostly under pKd 3.1 to 4; settings: plain residues with an end cap or a label only (N-terminal biotin on a linker: ado-ado)
Sequence (Q86UL8 600-682): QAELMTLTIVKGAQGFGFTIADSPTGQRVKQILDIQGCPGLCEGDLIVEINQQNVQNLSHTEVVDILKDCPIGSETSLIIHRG

Binder	pKd
QNRIITKTDV [SMCHD1, A6NHR9]	below the threshold
GDGLDDEIAV [NOS1AP, O75052]	below the threshold

target: GRIP2_5, Q9C0E4; assay: holdup assay; parameters: key: below the threshold = too weak to quantify, mostly under pKd 3.1 to 4; settings: plain residues with an end cap or a label only (N-terminal biotin on a linker: ado-ado)
Sequence (Q9C0E4 544-642): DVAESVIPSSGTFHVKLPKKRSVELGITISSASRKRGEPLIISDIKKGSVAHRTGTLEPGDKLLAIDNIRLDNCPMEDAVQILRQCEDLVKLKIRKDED

Binder	pKd
QNRIITKTDV [SMCHD1, A6NHR9]	below the threshold
GDGLDDEIAV [NOS1AP, O75052]	below the threshold

target: LNX1_2, Q8TBB1; assay: holdup assay; parameters: key: below the threshold = too weak to quantify, mostly under pKd 3.1 to 4; settings: plain residues with an end cap or a label only (N-terminal biotin on a linker: ado-ado)
Sequence (Q8TBB1 371-470): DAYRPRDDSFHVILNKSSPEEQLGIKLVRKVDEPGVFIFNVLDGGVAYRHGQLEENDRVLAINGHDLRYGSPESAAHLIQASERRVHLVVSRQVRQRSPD

Binder	pKd
QNRIITKTDV [SMCHD1, A6NHR9]	below the threshold
GDGLDDEIAV [NOS1AP, O75052]	3.68

target: T7, MPDZ_10, O75970; assay: holdup assay; parameters: key: below the threshold = too weak to quantify, mostly under pKd 3.1 to 4; settings: plain residues with an end cap or a label only (N-terminal biotin on a linker: ado-ado)
T7 sequence (O75970 1624-1722, limits assumed, looked up): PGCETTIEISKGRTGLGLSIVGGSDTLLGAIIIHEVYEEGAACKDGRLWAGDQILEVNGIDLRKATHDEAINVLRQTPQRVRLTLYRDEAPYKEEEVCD

Binder	pKd
QNRIITKTDV [SMCHD1, A6NHR9]	3.97
GDGLDDEIAV [NOS1AP, O75052]	below the threshold

target: GORASP1, Q9BQQ3; assay: holdup assay; parameters: key: below the threshold = too weak to quantify, mostly under pKd 3.1 to 4; settings: plain residues with an end cap or a label only (N-terminal biotin on a linker: ado-ado)
Sequence (Q9BQQ3 1-208): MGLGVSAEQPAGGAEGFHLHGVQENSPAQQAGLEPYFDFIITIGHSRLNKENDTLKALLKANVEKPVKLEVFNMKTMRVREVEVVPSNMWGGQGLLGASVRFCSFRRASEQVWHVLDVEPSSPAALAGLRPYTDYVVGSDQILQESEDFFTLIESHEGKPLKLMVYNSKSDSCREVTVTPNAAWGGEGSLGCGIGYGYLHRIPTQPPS

Binder	pKd
QNRIITKTDV [SMCHD1, A6NHR9]	below the threshold
GDGLDDEIAV [NOS1AP, O75052]	below the threshold

target: DLG2_2, Q15700; assay: holdup assay; parameters: key: below the threshold = too weak to quantify, mostly under pKd 3.1 to 4; settings: plain residues with an end cap or a label only (N-terminal biotin on a linker: ado-ado)
Sequence (Q15700 189-283): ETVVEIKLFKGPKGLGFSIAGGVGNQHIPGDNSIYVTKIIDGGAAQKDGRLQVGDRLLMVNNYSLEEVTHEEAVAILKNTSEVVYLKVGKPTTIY

Binder	pKd
QNRIITKTDV [SMCHD1, A6NHR9]	3.93
GDGLDDEIAV [NOS1AP, O75052]	below the threshold

target: LNX1_1, Q8TBB1; assay: holdup assay; parameters: key: below the threshold = too weak to quantify, mostly under pKd 3.1 to 4; settings: plain residues with an end cap or a label only (N-terminal biotin on a linker: ado-ado)
Sequence (Q8TBB1 261-371): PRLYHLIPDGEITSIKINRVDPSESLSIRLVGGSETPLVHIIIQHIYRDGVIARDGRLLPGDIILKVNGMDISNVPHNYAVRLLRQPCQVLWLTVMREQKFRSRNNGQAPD

Binder	pKd
QNRIITKTDV [SMCHD1, A6NHR9]	3.7
GDGLDDEIAV [NOS1AP, O75052]	below the threshold

target: DLG4_1, P78352; assay: holdup assay; parameters: key: below the threshold = too weak to quantify, mostly under pKd 3.1 to 4; settings: plain residues with an end cap or a label only (N-terminal biotin on a linker: ado-ado)
Sequence (P78352 62-152): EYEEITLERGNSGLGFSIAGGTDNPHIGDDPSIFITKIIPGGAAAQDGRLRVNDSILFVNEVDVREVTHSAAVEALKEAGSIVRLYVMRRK

Binder	pKd
QNRIITKTDV [SMCHD1, A6NHR9]	3.82
GDGLDDEIAV [NOS1AP, O75052]	below the threshold

target: PDZRN4_1, Q6ZMN7; assay: holdup assay; parameters: key: below the threshold = too weak to quantify, mostly under pKd 3.1 to 4; settings: plain residues with an end cap or a label only (N-terminal biotin on a linker: ado-ado)
Sequence (Q6ZMN7 213-318): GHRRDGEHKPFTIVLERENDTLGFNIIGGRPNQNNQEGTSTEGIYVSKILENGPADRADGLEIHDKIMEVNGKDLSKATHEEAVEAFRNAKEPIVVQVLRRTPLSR

Binder	pKd
QNRIITKTDV [SMCHD1, A6NHR9]	below the threshold
GDGLDDEIAV [NOS1AP, O75052]	below the threshold

target: LDB3, O75112; assay: holdup assay; parameters: key: below the threshold = too weak to quantify, mostly under pKd 3.1 to 4; settings: plain residues with an end cap or a label only (N-terminal biotin on a linker: ado-ado)
Sequence (O75112 1-94): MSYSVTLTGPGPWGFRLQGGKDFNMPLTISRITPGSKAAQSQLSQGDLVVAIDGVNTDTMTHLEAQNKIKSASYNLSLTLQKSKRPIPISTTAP

Binder	pKd
QNRIITKTDV [SMCHD1, A6NHR9]	below the threshold
GDGLDDEIAV [NOS1AP, O75052]	below the threshold

target: T8, DVL3, Q92997; assay: holdup assay; parameters: key: below the threshold = too weak to quantify, mostly under pKd 3.1 to 4; settings: plain residues with an end cap or a label only (N-terminal biotin on a linker: ado-ado)
T8 sequence (Q92997 244-331, limits assumed, looked up): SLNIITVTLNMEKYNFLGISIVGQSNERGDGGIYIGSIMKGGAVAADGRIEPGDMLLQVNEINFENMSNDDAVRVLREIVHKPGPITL

Binder	pKd
QNRIITKTDV [SMCHD1, A6NHR9]	below the threshold
GDGLDDEIAV [NOS1AP, O75052]	below the threshold
